According to the DeepSol protein solubility set:

Assay: soluble on expression in E. coli; label from the status in PepcDB or PDB records

Sequence	soluble on expression in E. coli
MGSDKIHHHHHHMKKLLNTLYLTQEDFYVTKEGDNIVIKQEGKVLKRFPFRIIDGIVCFSYLGVSSALVKLCTENQINLSFHTPQGRFCGRYIGSTNGNVLLRREHYRLSDREESLEYAKRFILAKISNSRKYLLRFKRDHRQQIDTKLFEAVNDELIWALEMVQAADNKDSLRGIEGQAANQYFRIFNDLVLTDKKTFYFQGRSKRPPLDCVNALLSFGYSLLTFECQSALEAVGLDSYVGFFHTDRPGRASLALDLVEEFRSYIVDRFVFSLINKGQLQKKHFEVKENGSILLTENGRAIFIDLWQKRKHTEVEHPFTKEKVKLMLLPYVQAQLLAKAIRGDLESYPPFMV	not soluble
MEQLLFRHNRPGRCVTFAEYRAEGGFAALEKALAGMSPNDVQQVVIDSGLRGRGGAGFPTGKKWSFVPRDIPGPRYLICNCDEMEPGTYKDRVLLEANPYSLVEGMTLAAYAIGVAHAFIFIRRGYEEAAENCRRAIAEAKAAGLLGENILGTGFSLELDVHQSAGRYICGEETALMNALEGKRANPRSKPPFPAVKGLWGRPTVVNNVETLANIPAIVANGAAWFKGLARIPEAAGMKLFCVSGHVNNTACFELPLGMTLGEIIDGPCGGMLPGREFKACIPGGASTPFFTKEHWHVPMDFDTVAKAGSRLGTGGIVVFDRDTCMVAATLNLIVFYARESCGWCTPCREGLPFVQDVLARIEAGEGREEHIGILREHIQYLNYSFCPLAPGAMGPVEGLLRLFEGEIREHIVLGRCPFGGKLEHHHHHH	not soluble
EILPNFFKSARPIEGLRPYTVLETAGRQIYIQEGCYHCHSQLIRPFQAEVDRYGAYSLSGEYAYDRPFLWGSKRIGPDLHRVGDYRTTDWHEKHMFDPKSVVPHSIMPAYKHLFTKKSDFDTAYAEALTQKKVFGVPYDTENGVKLGSVEEAKKAYLEEAKKITADMKDKRVLEAIERGEVLEIVALIAYLNSLGNSRINANQNA	not soluble
VSFPSSPPALPAIVARFAVGRPVRAVWVNELGGVTFRVDSGMGAGCEFIKVARRGTADFANEARRLRWAAPYLAVPRVLGVGVDGDWAWLHTDALPGLSAVHPRWRASPQVAVPALGAGLRTLHDSLPVHSCPFDWSTASRLAKLAPARRAELGDSPPVDRLVVCHGDACSPNTILDDTGRCCGHVDFGNLGVADRWADLAVATLSLQWNFPDYPGQVRDDEFFAAYGVAPDPARIDYYRRLWQAEDDSSR	soluble
MKEFSIMIQGTISSWTEDTMSLLTVEKLGHTFGDRTLFKDVSMRLLAGEHVGLVGANGVGKSTFMNIITGQLIHDQGRVEWTPGTHYGYLDQHTVLTPGRTIRDVLADAFLPLFEKEKALNEVTEKMGTATPEELEELLEQMAEIQDALEAGGFYLLYMKIEEAARGLGIDAIGLDRDVSALSGGQRTKVLLAKLLLEQPEVLLLDEPTNYLDVEHIHWLTNYLKEYPHAFLLISHDTEFMNKCVDVIFHLEFTKMTRYTATYEKFLELAEINKNQHINAYEKQREFIKKQEDFIAKNKARYSTTGRAKSRQKQLDRMELIDRPETAIKPEFSFKESRASSRFVFEGENVEIGYTHPLLPKLSMTIERGEKIAIVGCNGVGKSTLLKTILGKIKPLSGKTSLGDFLEPAYFEQEVKADNITPIDDVWNTFPGLDQHQIRAMLAKCGLKNEHISRPLSQLSGGEQAKVRLCKLMGEESNWLLFDEPTNHLDVTAKAELKKAMKAYKGTILLVCHEPDFYEDWITKVWDVEEWSQNSK	not soluble
MGSDKIHHHHHHMTENSRKTATELFEFLDGLGISHTTKQHEPVFTVAESQSLRDLIPGGHTKNLFVKDKKDQYFVLTVEENAVVDLKSVHKTIGAASRVSFGRPEKMLEYLGVVPGSVTVFGAINDTARQVTFVLDSDLLENELVNGHPLSNDQTTTIASKDLIRFLEATGHAPLVLKVSE	soluble
DIGCYTLGALPPYEAINSCVDMGASITMAKGAADAGLFPAVSVIGDSTFTHSGITGLLDAINENSNITVIISDNESISMTGGQHSSAYGKVEAICRGIGVDPDHIRELLPVPKNHDELCSIIREEINYEGVSVIIPRRVCIQKHARDAKAAKRAKA	not soluble
MGSDKIHHHHHHMLDKLWKKKNSMMVGIDIGSHSAKAVLLGQGNEGFIIEDFAIEPMPRGSVVDREIQDIEAVGAVIAKLRKKISAKATDAAAAVSGQTVITKLIYMDVALTEDELASQIEIEADSLIPFPLDEVSLDFETLDVNESDPSKVNVLLSAARTESIEARVAALDAGDFHAKVIDVESYAVGRAYDLCLTQLPDDAKDKVVAIVDIGSTVTLFSATDAGKHIYSRDQMFGGEQYTRSIVSYYNKSFEQAEEAKTSNDLPPNYTFEVLAPFHTVLMQQIRRAIQMFLTTSGQNKVDYLLISGGTAALEGIESLLTEELGIHTVIANPFNDMSCGESIEQAELANVAPQLMVATGLALRSFTPWHI	not soluble
SNAMATKLVIAIVQDKDANYLSDQFIDQNVRATKLSTTGGFLQSGNTTFMIGIEEERVPEVLEIIKKASHTREEFMTPSVNMDVNMEGTTAYPIKVQVGGATVLVLPVDQFERF	soluble
MGSDKIHHHHHHEDEKSPVMELQKASAFEPFSQSDFTFNDENAAAEFPEIKWTAADYGVKAVVNYDVTLTNDANAKTVLLGETGTTSLKFTNGQMNTMMAKVGAYPGQTYNFTITLTSKAYDMTADPASNSITFKATLFDPNAVDWKFAYVAVGYPDWDYTNAYLLGDPDGDGVYQGYANFDADGVSYAIIDGSDLTKILAKDQTAAKKGFYGIKVDAEGKVEQTEPLVWGVVGDATSGGWDKDTQMDYDATTRLWTVTTSLLDKEFKFRSNNNWDSDNYGAVSGKESELEGELVAGPNNFKVLKASPYVITMNLTNAGKYSYSMVETTIELSSAEMALPGSYQGWDATKDDCYKVQSAARDFIYTGTFYFDADTKFKFWDAGVWIGMMGPISWDEAKNIGTFVLMPSDGDNIKIETAGYYRVGADMKKLTASLTKTGWEIIGDATPGGWDKGTVMNYDPATKLWSVDVTLVAGEMKFRWDGAWTVNLGGSLGALTQDGANMKVTAGAYTIVLNPDAKTATMTKK	not soluble
SLEEYHKWYYGNLVWTKTTYMGINCWKSVSDMWNYQEILSELQPSLVIEFGTRYGGSAVYFANIMRQIGQPFKVLTVDNSHKALDPRARREPDVLFVESSSTDPAIAEQIQRLKNEYPGKIFAILDSDHSMNHVLAEMKLLRPLLSAGDYLVVEDSNINGHPVLPGFGPGPYEAIEAYEDEFPNDYKHDAERENKFGWTSAPNGFLIRN	soluble
MGSDKIHHHHHHMDDTTPPETPAVDDLLQRIAGAYDTLPRQLKRIASYIDEHRSSVMMDRTSDIAQRCGVHPSAVVRFAQRFGFSGFSDLQAVFKDAYTGQNPTVQSYQQRIRSLIDGEAGPMTGGAVARQFIDASRAGLDELAAGLDDDQFDAAVTMLERAENIYVVGVRRSFPVASYIVYALQHTAKRVHLVSGLGGMYREQIRSVKKGDVVIAISFAPYGKETQYCLRAARHNHAQTLVVTDSRLSPLARDASAHLLVKEGSAFAFRSLTSTICLCQALFIALAYRLELNVEEVKDIGGYDD	not soluble
MGSDKIHHHHHHMTDSRQRLLVFAPTRRVASETFVRANLAGLPFEVSAYFGDEFPLDQPGRFAYGLGVLLSKIFTRLGWLRLAELPAAFVAWILIRRHRPDVVLAEFGFHAVRVMQAAARVDVPFVVHFRGSDLSANRRLGVLRSRYRRLVSIASGVVCKSRPMATTLEQLGASPSTILISPSGANPALFSVGDPALAAPVFLAVGRFVAKKGPLQTIRAFAGQPQGELWMVGEGPLLAEARRLVQALQVQDRVRFLGVKTQSEVAALMRQARVFVQHSQIAPDGDSEGNPVSVMEAQLCGLPVVATLHAGIPDVVLDGSTGLLVEENDVDGMAEAMTRLMADPNLAAQFGLAGRERVLAAFTLEHHLQDLTRFLQQQIRSTTHF	not soluble
MMLVTAHDMPIFAPTCNLMTISHQPLPSHLVRKSSSLHIAASTIHVKFIVRSHVIKMIAGIFLVCECHAKGGANSITASKQSPIIADLYDMKILIVFCLSYTNLIASKVKKQ	soluble
MVLADLGRKIRNAIGKLGQSTVINEGELDLMLKEVCTALIESDVHIRLVKQLKDNVKKAINFEEIVGGANKRRYIQKTVFNELLKLVDPGVTPFTPTKGRRNVFMFVGLQGSGKTTTCTKMAYYYQRKGWKTCLICADTFRAGAFDQLKQNATKARIPFYGSYSEIDPVKIAAEGVEKFTQEGFEIIIVDTSGRHKQEASLFEEMLQVSNAVTPDNVVFVMDASIGQACEAQARAFSQTVDVASVIITKLDSHAKGGGALSAVAVTKSPVIFIGTGEHIDDFEIFKPKSFVQKLLGMGDIAGLVDMVNDIGIQDNKELVGRLKQGQFTLRDMYEQFQNIMKMGPFSQIMGMIPGFGSEFMTKGNEQESVNRLKRMMTVMDSMSDKELDHPKASELFTKEPNRVARVARGSGSHQQEVRDLLAQYKKFSDVVKKIGSIKGLFNGKNGDINPKNMNPAKMAQLNQQMAKMMDPRVLQQMGGMGGLQNMMQQMARAGKM	not soluble
MFQQQKDWETRENAFAAFTMGPLTDFWRQRDEAEFTGVDDIPVRFVRFRAQHHDRVVVICPGRIESYVKYAELAYDLFHLGFDVLIIDHRGQGRSGRLLADPHLGHVNRFNDYVDDLAAFWQQEVQPGPWRKRYILAHSMGGAISTLFLQRHPGVCDAIALTAPMFGIVIRMPSFMARQILNWAEAHPRFRDGYAIGTGRWRALPFAINVLTHSRQRYRRNLRFYADDPTIRVGGPTYHWVRESILAGEQVLAGAGDDATQTLLLQAEEERVVDNRMHDRFCELRTAAGHPVEGGRPLVIKGAYHEILFEKDAMRSVALHAIVDFFNRHNSPSGNRSTEV	not soluble
MSQTRTHEQVLAKEPWYHGLLPREDMKQLLTQRGDFLVRFTDPKVGEPRKFVLSVYVGVIEDIRHYVIREHNNKFAVDKKWFSSIADLLNYYHRSKEPVAGGPETVIIRPIGREPWEKQHSDVTLIKKLGEGAFGEVQLGEIRIGNTVKKAAIKLAKLESLTKEQIKEIMHEARLMRKFKHPNVVTFYGVAAGQEPLMVIMELADNGALDSYLKKNIGSLPISKKHTMVLQAGLGLEYLHSLQIIHRDIASRNCLYGNGQVKISDFGLSREGYSYRMNPHKKVPIRWLAPEVPRTGFYTPKTDVFAYGVMCWEVYHDGIEPYPGMKVAEVLPRVQNGYRMPFEANVPPAIVRFITYRICAGAEEERVTMSEAVRELLTLEGFDQAPGSNSYFELPDHIPMENIEQPKKIQVSNILPYMSKPVAPPFEPERQEKTQEMRKSMSNSAEEGVKKNRRPVRTRIRNGNSPSPGFKSQSRSAAENQNKSNLKAVQKKKNNKQSSSISGDAPSTFSVLGVFGKKKNTADRSDLKKLEEF	not soluble
MGSDKIHHHHHHMDIYEKYGLKPVINADGKMTILGVSQVSDQVAAAQKQGAQNFFEMAELTVQTGRYLADLIGSEDALIVNSASAGIAQVLAGIIGRGNAYHVTHPYTTQITQREVIMPLGHDVDYGAPVDVMLAVAGAQPVLAGYANRCTAEQLAMQITPQTVAILYIKSHHTVQKSMLTIADALQVAHDHHLPLVLDAAAEGDLRRYLQLGVDVVIYSGAKAISGPASGLVLGRQTYVEWARQQNYGIGRAMKIGKENILGLVAAVEQYLTTGPESGASMKARLAPFIAELQTLPNVQVEMVQDGAGRDIFRASVRIAEAAKICQALRQGRPAIYPREYRVNEGLIEFDIRALTSAEMTQIVERLRTIIEEESTCN	not soluble
